Data published in US20160138094.

Legend:
[1] = test system: TALE_037 (TALE_97 with RVD N* opposite C6) repeat 5 RVD HD to N* (position 13 deleted) (Xanthomonas axonopodis pv. citri (engineered)); assay: inhibition
[2] = test system: TALE_038 (TALE_97 with RVD NG opposite C6) repeat 5 RVD HD to NG (Xanthomonas axonopodis pv. citri (engineered)); assay: inhibition
[3] = inhibition of Klenow exo- primer extension, MgCl2, room temperature
[4] = 5mC at target position 6, inhibition of Klenow exo- primer extension, MgCl2, room temperature

Sequence “TGGATTCCCACTCTTCAGCCCCAGCGTTACAGCATCTTCAGTGGCTTCTTCCACCGTGAGCTCTTCCGTTTCCACATCC / GGATGTGGAAACGGAAGA [t97 template / p97_rev primer]” has an IC50 [1, 3] of 60 nM and an IC50 [2, 3] of 357 nM.

“TGGATTCCCACTCTTCAGCCCCAGCGTTACAGCATCTTCAGTGGCTTCTTCCACCGTGAGCTCTTCCGTTTCCACATCC / GGATGTGGAAACGGAAGA [t97_C6hmC / p97_rev]” showed an IC50 ([1]; 5hmC at target position 6, reduction of primer extension to 50% at about this TALE concentration) of 1500 nM and an IC50 ([2]; 5hmC at target position 6, reduction of primer extension to 50%, estimated) of 2000 nM.

With “TGGATTCCCACTCTTCAGCCCCAGCGTTACAGCATCTTCAGTGGCTTCTTCCACCGTGAGCTCTTCCGTTTCCACATCC / GGATGTGGAAACGGAAGA [t97_C6mC / p97_rev]” the IC50 [1, 4] was 51 nM and the IC50 [2, 4] was 163 nM.
